Assay results as given in the Human Domainome abundance scans (Beltran et al. 2025).

B1: Histidine--tRNA ligase, cytoplasmic, residues 8 to 45; numbered along this chain, P12081 (parent)
chain: EELVKLQGERVRGLKQQKASAELIEEEVAKLLKLKAQL

Variants of: B1
Assay: abundance fitness (aPCA) (normalised: wild type 0, dead -1); higher = more abundant; growth selection in yeast, the domain comes from the species named
Conditions: Homo sapiens

Abundance fitness: each site, then its substitutions
Q16: S -0.004 | V -0.039 | E 0.132 | L -0.057 | A 0.144 | I -0.227
S20: Q -0.057 | M -0.431 | K -0.118 | C -0.09 | Y -0.945 | R -0.019 | T -0.132 | L -0.781 | H -0.128 | W -1.1 | D 0.038 | G -0.022 | E 0.068 | N 0.026 | F -1.09 | V -0.693
R12: W -0.018 | M -0.216 | E 0.231 | D 0.122 | Q 0.101 | S 0.098 | F -0.172 | I -0.077 | N -0.022 | T 0.05 | H 0.005 | G 0.096 | V -0.008 | L -0.034 | A 0.218
V4: Y 0.077 | W -0.468
E22: H -0.156 | Y -0.288 | P -0.007 | N 0.055 | Q 0.13 | M -0.046 | V 0.052 | L -0.149 | F -0.311 | C -0.107 | R -0.023 | K 0.075 | I -0.156 | T 0.091 | D 0.04 | G -0.03 | W -0.577 | A 0.069
K18: C -0.112 | Q 0.066 | G 0.172 | H 0.239 | R -0.06 | V -0.236 | W -0.619 | T -0.083 | I -0.375 | A 0.047 | M 0.067 | D 0.221 | P 0.004 | F -0.45 | Y -0.342
E9: F -0.684 | K -0.324 | W -0.726 | T -0.246 | P -0.631 | A -0.186 | N 0.035 | V -0.653 | Q -0.379 | R -0.464 | C -0.5 | H -0.699 | I -0.716 | M -0.232 | D -0.001 | L -0.466 | S -0.291 | G -0.357 | Y -0.816
V11: N -0.334 | S -0.238 | I -0.011 | P -0.01 | K -0.255 | H -0.209 | C -1.51 | E 0.055 | R -0.03 | Q 0.011 | F -0.571 | L -0.189 | W -0.374 | T -0.127 | Y -0.552 | M -0.106 | A -0.169 | G -0.121
L6: C -0.436 | M 0.1 | Y -0.261 | N -0.017 | G -0.171 | V 0.054 | R 0.051 | E 0.128 | A 0.194 | Q 0.213 | S -0.136 | I -0.428 | F -0.102 | P -0.211 | K 0.155 | H 0.051
A19: C -0.034 | S -0.21 | N -0.406 | Q -0.173 | T -0.174 | M -0.039 | K -0.264 | L -0.504 | W -0.424 | G -0.27 | Y -0.612 | E -0.17 | D -0.285 | R -0.255 | F -0.384 | I -0.538 | P -0.145
I24: E -0.151 | A -0.027 | G -0.068 | K 0 | F 0.069 | H 0.169 | D 0.055
L14: Q -0.173 | N -0.479 | G -0.184 | C -0.119 | H -0.397 | A 0.064 | I -0.263 | P -0.248 | T -0.334 | Y -0.458 | E 0.053 | D -0.24 | R -0.332 | K -0.209 | M 0.053 | S -0.101 | W -0.467 | F -0.4
